Results published in paper PMC5264599.

B1: wild type p16-GFP [not stated] / CDK4 (Cyclin-dependent protein kinase), endogenous in 293T cells [human (endogenous in 293T)] (parent)
chain 1: MEPAAGSSMEPSADWLATAAARGRVEEVRALLEAGALPNAPNSYGRRPIQVMMMGSARVAELLLLHGAEPNCADPATLTRPVHDAAREGFLDTLVVLHRAGARLDVRDAWGRLPVDLAEELGHRDVARYLRAAAGGTRGSNHARIDAAEGPSDIPD
chain 2: MATSRYEPVAEIGVGAYGTVYKARDPHSGHFVALKSVRVPNGGGGGGGLPISTVREVALLRRLEAFEHPNVVRLMDVCATSRTDREIKVTLVFEHVDQDLRTYLDKAPPPGLPAETIKDLMRQFLRGLDFLHANCIVHRDLKPENILVTSGGTVKLADFGLARIYSYQMALTPVVVTLWYRAPEVLLQSTYATPVDMWSVGCIFAEMFRRKPLFCGNSEADQLGKIFDLIGLPPEDDWPRDVSLPRGAFPPRGPRPVQSVVPEMEESGAQLLLEMLTFNPHKRISAFRALQHSYLHKDEGNPE

Variants of: B1
Experiment: co-immunoprecipitation (anti-GFP IP, anti-CDK4 immunoblot, photodensitometry)
Details: with CDK4 (Cyclin-dependent protein kinase), scale: relative intensity
[1] = 1 mM H2O2 for 24 h, read off a plot

Variant	response [1]	response (no H2O2, read off a plot)
chain 1 S152A	1.7	1.1
chain 1 S8A	1.4	0.92
chain 1 S140A	0.92	0.85
